Source: publication doi:10.1101/709196 (bioRxiv, 2019)

B1: SS-EGFP-SUN2^261-731 (domain or fragment, UniProt Q8BJS4 261-731, looked up)
chain: SWWAAKESRKQPEVWESRDASQHFQAEQRVLSRVHSLERRLEALAADFSSNWQKEAIRLERLELRQGAAGHGGGSSLSHEDALSLLEGLVSRREATLKEDLRRDTVAHIQEELATLRAEHHQDSEDLFKKIVQASQESEARVQQLKTEWKSMTQEAFQESSVKELGRLEAQLASLRQELAALTLKQNSVADEVGLLPQKIQAARADVESQFPDWIRQFLLGDRGARSGLLQRDEMHAQLQELENKILTKMAEMQGKSAREAAASLGQILQKEGIVGVTEEQVHRIVKQALQRYSEDRIGMVDYALESGGASVISTRCSETYETKTALLSLFGIPLWYHSQSPRVILQPDVHPGNCWAFQGPQGFAVVRLSARIRPTAVTLEHVPKALSPNSTISSAPKDFAIFGFDEDLQQEGTLLGTFAYDQDGEPIQTFYFQASKMATYQVVELRILTNWGHPEYTCIYRFRVHGEPAH

Legend:
SS-EGFP-SUN2^261-731 = SS-EGFP-SUN2^261-731 (UniProt Q8BJS4); experiment: dual-color fluorescence fluctuation spectroscopy
[1] = target: the molecule itself; experiment: dual-color fluorescence fluctuation spectroscopy

Molecule | normalized brightness br (mCherry labels per complex) at Nr:Ng above 4:1 (SS-EGFP-SUN2^261-731) | stoichiometry N (SS-EGFP-SUN2^261-731; scale: mCherry-SR-KASH2 per SS-EGFP-SUN2^261-731) | stoichiometry N [1]
mCherry-SR-KASH2 (from UniProt Q6ZWQ0 1-6874) (domain or fragment) | 3 | < 1 | –
B1 | – | – | 3
